# In IntAct's records for PubMed 31515488:
# B1: Kappa-casein (Homo sapiens), P07498 (parent)
# chain: MKSFLLVVNALALTLPFLAVEVQNQKQPACHENDERPFYQKTAPYVPMYYVPNSYPYYGTNLYQRRPAIAINNPYVPRTYYANPAVVRPHAQIPQRQYLPNSHPPTVVRRPNLHPSFIAIPPKKIQDKIIIPTINTIATVEPTPAPATEPTVDSVVTPEAFSESIITSTPETTTVAVTPPTA
# B2: Methylthioribulose-1-phosphate dehydratase (Homo sapiens), Q96GX9 (parent)
# chain: MSGCDAREGDCCSRRCGAQDKEHPRYLIPELCKQFYHLGWVTGTGGGISLKHGDEIYIAPSGVQKERIQPEDMFVCDINEKDISGPSPSKKLKKSQCTPLFMNAYTMRGAGAVIHTHSKAAVMATLLFPGREFKITHQEMIKGIKKCTSGGYYRYDDMLVVPIIENTPEEKDLKDRMAHAMNEYPDSCAVLVRRHGVYVWGETWEKAKTMCECYDYLFDIAVSMKKVGLDPSQLPVGENGIV
# partner: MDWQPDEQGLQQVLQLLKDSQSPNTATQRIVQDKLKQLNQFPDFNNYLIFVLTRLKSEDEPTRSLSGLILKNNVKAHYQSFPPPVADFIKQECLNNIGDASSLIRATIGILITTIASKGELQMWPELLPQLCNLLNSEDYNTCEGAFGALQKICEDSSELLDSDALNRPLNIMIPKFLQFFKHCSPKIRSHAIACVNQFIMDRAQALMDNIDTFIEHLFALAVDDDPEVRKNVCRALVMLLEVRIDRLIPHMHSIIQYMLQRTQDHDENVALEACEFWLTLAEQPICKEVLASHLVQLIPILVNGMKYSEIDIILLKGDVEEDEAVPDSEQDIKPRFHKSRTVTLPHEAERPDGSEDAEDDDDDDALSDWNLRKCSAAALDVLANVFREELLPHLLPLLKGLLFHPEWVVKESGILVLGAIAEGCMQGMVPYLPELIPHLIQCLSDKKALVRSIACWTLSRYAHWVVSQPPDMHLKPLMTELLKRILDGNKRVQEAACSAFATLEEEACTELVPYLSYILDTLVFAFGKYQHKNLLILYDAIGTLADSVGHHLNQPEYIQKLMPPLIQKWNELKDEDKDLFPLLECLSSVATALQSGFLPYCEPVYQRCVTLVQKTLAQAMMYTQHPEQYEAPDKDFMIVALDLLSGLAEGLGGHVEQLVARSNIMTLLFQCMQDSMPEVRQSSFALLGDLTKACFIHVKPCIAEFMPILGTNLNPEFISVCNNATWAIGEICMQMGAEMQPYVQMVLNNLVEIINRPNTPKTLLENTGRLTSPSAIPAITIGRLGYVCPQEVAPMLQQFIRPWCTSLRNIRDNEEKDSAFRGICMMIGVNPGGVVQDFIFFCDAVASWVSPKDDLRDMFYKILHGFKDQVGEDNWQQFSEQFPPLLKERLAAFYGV
# B3: Methylthioribulose-1-phosphate dehydratase (Homo sapiens), Q96GX9 (parent)
# chain: B2 chain
# partner: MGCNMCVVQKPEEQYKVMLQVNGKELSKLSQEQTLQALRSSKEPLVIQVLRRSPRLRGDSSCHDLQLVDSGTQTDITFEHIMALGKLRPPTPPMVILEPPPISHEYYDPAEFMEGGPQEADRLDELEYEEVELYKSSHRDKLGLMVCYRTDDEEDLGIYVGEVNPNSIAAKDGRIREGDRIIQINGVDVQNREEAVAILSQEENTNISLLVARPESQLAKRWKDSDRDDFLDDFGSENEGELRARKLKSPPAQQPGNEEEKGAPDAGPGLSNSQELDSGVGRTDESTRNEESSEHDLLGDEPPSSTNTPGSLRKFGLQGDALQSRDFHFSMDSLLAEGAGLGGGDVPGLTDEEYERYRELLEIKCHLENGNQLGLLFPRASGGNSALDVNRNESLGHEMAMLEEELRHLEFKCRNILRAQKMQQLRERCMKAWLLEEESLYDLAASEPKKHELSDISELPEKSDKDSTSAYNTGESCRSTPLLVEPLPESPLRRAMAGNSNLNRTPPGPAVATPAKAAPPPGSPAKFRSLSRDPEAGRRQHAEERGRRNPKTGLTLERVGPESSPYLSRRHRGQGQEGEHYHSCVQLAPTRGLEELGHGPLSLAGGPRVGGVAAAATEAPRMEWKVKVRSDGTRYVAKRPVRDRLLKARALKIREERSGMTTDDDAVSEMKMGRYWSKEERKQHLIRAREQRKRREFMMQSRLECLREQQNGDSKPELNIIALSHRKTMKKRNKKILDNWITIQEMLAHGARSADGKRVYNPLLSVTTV
# B4: Chondroitin sulfate N-acetylgalactosaminyltransferase 2 (Homo sapiens), Q8N6G5 (parent)
# chain: MPRRGLILHTRTHWLLLGLALLCSLVLFMYLLECAPQTDGNASLPGVVGENYGKEYYQALLQEQEEHYQTRATSLKRQIAQLKQELQEMSEKMRSLQERRNVGANGIGYQSNKEQAPSDLLEFLHSQIDKAEVSIGAKLPSEYGVIPFESFTLMKVFQLEMGLTRHPEEKPVRKDKRDELVEVIEAGLEVINNPDEDDEQEDEEGPLGEKLIFNENDFVEGYYRTERDKGTQYELFFKKADLTEYRHVTLFRPFGPLMKVKSEMIDITRSIINIIVPLAERTEAFVQFMQNFRDVCIHQDKKIHLTVVYFGKEGLSKVKSILESVTSESNFHNYTLVSLNEEFNRGRGLNVGARAWDKGEVLMFFCDVDIYFSAEFLNSCRLNAEPGKKVFYPVVFSLYNPAIVYANQEVPPPVEQQLVHKKDSGFWRDFGFGMTCQYRSDFLTIGGFDMEVKGWGGEDVHLYRKYLHGDLIVIRTPVPGLFHLWHEKRCADELTPEQYRMCIQSKAMNEASHSHLGMLVFREEIETHLHKQAYRTNSEAVG
# partner: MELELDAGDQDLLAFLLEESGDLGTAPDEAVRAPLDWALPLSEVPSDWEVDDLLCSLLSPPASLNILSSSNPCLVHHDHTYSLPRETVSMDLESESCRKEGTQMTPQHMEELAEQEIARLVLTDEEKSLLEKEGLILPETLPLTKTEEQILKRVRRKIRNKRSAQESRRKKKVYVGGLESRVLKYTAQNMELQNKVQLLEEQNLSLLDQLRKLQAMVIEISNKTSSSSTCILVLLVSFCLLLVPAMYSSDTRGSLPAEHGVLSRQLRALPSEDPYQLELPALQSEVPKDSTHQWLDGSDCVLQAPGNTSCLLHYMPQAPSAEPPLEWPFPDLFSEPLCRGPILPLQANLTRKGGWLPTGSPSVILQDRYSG
# Variants of: B1
# Conditions: with rbpms_human RBPMS
row,Variant,effect of a mutation on the interaction
1,MKSFLLVVNALALTLPFLAVEVQNQKQPACHENDERPFYQKTAPYVPMYYVPNSYPYYGTNLYQRRPAIAINNPYVPRTYYANPAVVRPHAQIPQLQYLPNSHPPTVVRRPNLHPSFIAIPPKKIQDKIIIPTINTIATVEPTPAPATEPTVDSVVTPEAFSESIITSTPETTTVAVTPPTA [R96L],with no effect

# Variants of: B1
# Conditions: with dmrtb_human DMRTB1, Q96MA1
# Chain of dmrtb_human DMRTB1, Q96MA1 (Q96MA1 whole entry): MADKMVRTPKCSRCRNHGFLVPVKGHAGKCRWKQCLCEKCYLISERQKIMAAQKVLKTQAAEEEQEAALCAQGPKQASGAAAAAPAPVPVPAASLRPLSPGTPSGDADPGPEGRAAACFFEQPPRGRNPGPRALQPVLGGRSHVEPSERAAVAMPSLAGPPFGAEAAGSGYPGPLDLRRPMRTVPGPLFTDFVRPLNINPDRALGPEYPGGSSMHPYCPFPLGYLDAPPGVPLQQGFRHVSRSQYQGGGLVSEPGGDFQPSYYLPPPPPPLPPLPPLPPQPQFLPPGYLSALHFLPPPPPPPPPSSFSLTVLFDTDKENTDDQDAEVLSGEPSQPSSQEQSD
row,Variant,effect of a mutation on the interaction
1,MKSFLLVVNALALTLPFLAVEVQNQKQPACHENDERPFYQKTAPYVPMYYVPNSYPYYGTNLYQRRPAIAINNPYVPRTYYANPAVVRPHAQIPQLQYLPNSHPPTVVRRPNLHPSFIAIPPKKIQDKIIIPTINTIATVEPTPAPATEPTVDSVVTPEAFSESIITSTPETTTVAVTPPTA [R96L],with no effect
2,MKSFLLVVNALALTLPFLAVEVQNQKQPACHENDERPFYQKTAPYVPMYYVPNSYPYYGTNLYQRRPAIAINNPYVPRTYYANPAVVRPHAQIPQRQYLPNSHPPTVVRRPNLHPSFIAIPPKKIQDKIIIPTINTIATVEPTPTPATEPTVDSVVTPEAFSESIITSTPETTTVAVTPPTA [A145T],with no effect

# Variants of: B2
# Conditions: with tnpo2_human TNPO2, O14787
row,Variant,effect of a mutation on the interaction
1,MSGCDAREGDCCSRRCGAQDKEHPRYLIPELCKQFYHLGWVTGTGGGISLKHGDEIYIAPSGVQKERIQPEDMFVCDINEKDISGPSPSKKLKKSQCTPLFMNAYTMRGAGAVIHTHSKAAVMATLLFPGREFKITHQEMIKGIKKCTSGGYYRYDDMLVVPIIENTPEEKDLKDRMAHAVNEYPDSCAVLVRRHGVYVWGETWEKAKTMCECYDYLFDIAVSMKKVGLDPSQLPVGENGIV [M181V],disrupting interaction strength
2,MSGCDAREGDCCSRRCGAQDKEHPRYLIPELCKQFYHLGWVTGTGGGISLKHGDEIYIAPSGVQKERIQPEDMFVCDINEKDISGPSPSKKLKKSQCTPLFMNAYTMRGAAAVIHTHSKAAVMATLLFPGREFKITHQEMIKGIKKCTSGGYYRYDDMLVVPIIENTPEEKDLKDRMAHAMNEYPDSCAVLVRRHGVYVWGETWEKAKTMCECYDYLFDIAVSMKKVGLDPSQLPVGENGIV [G111A],with no effect

# Variants of: B3
# Conditions: with pdzd4_human PDZD4, Q76G19
row,Variant,effect of a mutation on the interaction
1,MSGCDAREGDCCSRRCGAQDKEHPRYLIPELCKQFYHLGWVTGTGGGISLKHGDEIYIAPSGVQKERIQPEDMFVCDINEKDISGPSPSKKLKKSQCTPLFMNAYTMRGAAAVIHTHSKAAVMATLLFPGREFKITHQEMIKGIKKCTSGGYYRYDDMLVVPIIENTPEEKDLKDRMAHAMNEYPDSCAVLVRRHGVYVWGETWEKAKTMCECYDYLFDIAVSMKKVGLDPSQLPVGENGIV [G111A],with no effect
2,MSGCDAREGDCCSRRCGAQDKEHPRYLIPELCKQFYHLGWVTGTGGGISLKHGDEIYIAPSGVQKERIQPEDMFVCDINEKDISGPSPSKKLKKSQCTPLFMNAYTMRGAGAVIHTHSKAAVMATLLFPGREFKITHQEMIKGIKKCTSGGYYRYDDMLVVPIIENTPEEKDLKDRMAHAVNEYPDSCAVLVRRHGVYVWGETWEKAKTMCECYDYLFDIAVSMKKVGLDPSQLPVGENGIV [M181V],with no effect

# Variants of: B4
# Conditions: with creb3_human CREB3, O43889
row,Variant,effect of a mutation on the interaction
1,MPRRGLILHTRTHWLLLGLALLCSLVLFMYLLECAPQTDGNASLPGVVGENYGKEYYQALLQEQEEHYQTRATSLKRQIAQLKQELQEMSEKMRSLQERRNVGANGIGYQSNKEQAPSDLLEFLHSQIDKAEVSIGAKLPSEYGVIPFESFTLMKVFQLEMGLTRHPEEKPVRKDKRDELVEVIEAGLEVINNPDEDDEQEDEEGPLGEKLIFNENDFVEGYYRTERDKGTQYELFFKKADLTEYRHVTLFRPFGPLMKVKSEMIDITRSIINIIVPLAERTEAFVQFMQNFRDVCIHQDKKIHLTVVYFGKEGLSKVKSILESVTSESNFHNYTLVSLNEEFNRGRGLNVGARAWDKGEVLMFFCDVDIYFSAEFLNSCRLNAEPGKKVFYPVVFSLYNPAIVYANQEVPPPVEQQLVHKKDSGFWRDFGFGMTCQYRSDFLTIGGFDMEVKGWGGEDVHLYRKYLHGDLIVIRTPVSGLFHLWHEKRCADELTPEQYRMCIQSKAMNEASHSHLGMLVFREEIETHLHKQAYRTNSEAVG [P479S],with no effect
